# Test results: paper PMC5799255, “Histone H5 is a potent Antimicrobial Agent and a template for novel Antimicrobial Peptides” (Scientific Reports, 2018)
# Columns and labels:
# Assay type in all cases: cell-based
# [1] = test system: Listeria monocytogenes biofilms; test: MBEC assay (MBEC Assay Biofilm Inoculator), anti-biofilm activity
# Procedure: (§1) The anti-biofilm activity of histone H5 against P. aeruginosa and L. monocytogenes biofilms was assessed using the MBEC Assay Biofilm Inoculator (formerly the Calgary Biofilm Device (CBD)).
# (§2) The preparation of the bacterial suspension was the same as described in the determination of the MIC and MBC, except that the bacterial suspension was adjusted to 10^5 CFUs/ml in LB broth (BHI broth for L. monocytogenes), not PBS. Wells of an MBEC™ Assay Biofilm Inoculator (Innovotech, Edmonton, AB), which contains pegs projecting downwards from the lid that serve as a surface for biofilm formation, were inoculated with 150 µL of bacterial suspension. The plate was incubated for 24 hours at 37 °C (110 rpm) for Pseudomonas aeruginosa bacterial biofilms or for 72 hours at 22 °C (60 rpm) for Listeria monocytogenes. Following incubation, planktonic cells were rinsed away by switching the 96-peg lid to a sterile 96-well microplate with 200 μL of sterile PBS per well. Pegs with established biofilms were incubated with 200 μL of histone H5 (dissolved in sterile water, pH 7.4), in wells of another sterile 96-well microplate containing serially two-fold dilutions of H5. Solutions of gentamicin and kanamycin served as positive controls for P. aeruginosa and L. monocytogenes, respectively, whereas sterile water (pH 7.4) served as a negative control. The device was incubated for 2 hours at 37 °C, 110 rpm for P. aeruginosa and at 22 °C, 60 rpm for L. monocytogenes. The 96-peg lid was then rinsed twice as described above and placed on a sterile 96-well microplate with 200 μL of LB broth (P. aeruginosa) or BHI broth (L. monocytogenes) per well. The microplate was sonicated for 10 minutes (P. aeruginosa) or 30 minutes (L. monocytogenes) in order to dislodge the biofilms from the pegs, after which the peg-lid was replaced with a sterile, normal lid. This microplate was incubated in the EON microplate reader overnight at 37 °C (206 oscillations/min). The EON microplate spectrophotometer with Gen5 data analysis software (BioTek, Winooski, VT, USA) was used to monitor the growth of bacteria by measuring the optical density at 600 nm every 30 minutes for 24 hours (P. aeruginosa) or 48 hours (L. monocytogenes). The lowest histone H5 concentration without visible bacterial growth was designated as the minimum biofilm eradication concentration (MBEC). Additionally, a standard curve for the number of viable bacteria in the inoculum versus bacterial growth lag time was generated, since every microplate additionally contained wells with serially ten-fold diluted bacteria obtained from the uninhibited biofilm control (sterile H2O). Bacterial growth inhibition for each histone H5 concentration tested was determined from this standard curve.
# [2] = test system: Pseudomonas aeruginosa biofilms; test: as above; conditions: 2 h treatment at 37 °C; for biofilm growth inhibition (log inhibition): versus untreated control, three independent trials, P < 0.04
# Procedure: as §1, §2
# Listeria monocytogenes = test: Scanning electron microscopy of treated planktonic bacteria; conditions: 4 µg/mL, 3-hour incubation; three independent trials, each in duplicate
# Procedure: (§3) In order to study the effect of histone H5 on bacterial membranes, Gram-positive and Gram-negative planktonic bacteria incubated with histone H5 were visualized by scanning electron microscopy (SEM). Representative SEM images of Listeria monocytogenes and Pseudomonas aeruginosa untreated (H2O control) and histone H5-treated bacterial cells are shown in Fig. 3. […] Similar observations were made in each of three independent trials, each performed in duplicate.
# (§4) The same protocols as described in the preparation of the bacterial suspension and the broth microdilution assay were followed to prepare the histone H5-treated bacteria and the untreated control cells for SEM. After a 3-hour incubation of the 1:1 (v/v) ratio of planktonic bacteria and histone H5 (or 1:1 (v/v) ratio of planktonic bacteria and sterile H2O for the untreated control cells), 100 µL of this solution was filtered directly through an Isopore™ polycarbonate membrane filter ([…], EMD Millipore Co Cork, IRL) which was placed in a Swinny Stainless Steel 13 mm Filter Holder (EMD Millipore, MA, USA) connected to vacuum suction. The filter was then removed and placed onto a Kimwipe™ (Kimberly-Clark™ Professional Kimtech Science™) in a glass cell culture dish. The filters were fixed with 5% glutaraldehyde in 0.1 M sodium cacodylate, pH 7.5 (VWR, Radnor, PA, USA) overnight at 4 °C. […]
# Pseudomonas aeruginosa = test: as above; conditions: 4 µg/mL, 3-hour incubation; three independent trials, each in duplicate
# Procedure: as §3, §4
molecule,measurement,setting,value
"histone H5: erythrocyte-specific linker histone purified from chicken erythrocytes, 190 amino acids (protein, UniProt P02259 2-190, looked up) Histone H5: TESLVLSPAPAKPKRVKASRRSASHPTYSEMIAAAIRAEKSRGGSSRQSIQKYIKSHYKVGHNADLQIKLSIRRLLAAGVLKQTKGVGASGSFRLAKSDKAKRSPGKKKKAVRRSTSPKKAARPRKARSPAKKPKATARKARKKSRASPKKAKKPKTVKAKSRKASKAKKVKRSKPRAKSGARKSPKKK",MBEC/MIC ratio,[1]; MBEC 19.1 ± 13.1 µg/mL versus planktonic MIC,~5 fold
same,MBEC,"[1]; biofilm grown 72 h at 22 °C on pegs, 2 h treatment at 22 °C, recovery growth OD600 48 h in BHI broth, mean ± SD, n = 3",19.1 ± 13.1 µg/mL
same,biofilm growth inhibition (log inhibition),[2]; 32 µg/mL,0.7 ± 0.2 log inhibition
same,biofilm growth inhibition (log inhibition),[2]; 64 µg/mL,1.6 ± 0.5 log inhibition
same,biofilm growth inhibition (log inhibition),[2]; 128 µg/mL,2.3 ± 0.9 log inhibition
same,MBEC,"[2]; biofilm grown 24 h at 37 °C on pegs, recovery growth OD600 24 h in LB broth, highest concentration 128 µg/mL, n = 3",>128 µg/mL
same,bacterial cell morphology by SEM,Listeria monocytogenes,"Multiple indentations in the bacterial membrane, membrane wrinkling and pronounced deformations"
same,bacterial cell morphology by SEM,Pseudomonas aeruginosa,"indentations in the bacterial membrane, small pore formation"
